Among the data in the supplement of paper PMC10567573 are protein stability index values, retold here.

The labels stand for the following.
B1: ZNF649 (parent)
chain: DECEKAYFYMSCLVKHKRIHSREK
B2: RAB11B (parent)
chain: AVPTDEARAFAEKNNLSFIETSAL
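Also: lentivirally expressed fusions sorted by FACS into six bins by GFP to DsRed ratio, PSI derived from sequencing read proportions per bin multiplied by bin number.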

The variants in one data set derive from B1. Briefly: protein stability index of a GFP-peptide fusion (GPS, HEK-293T) (PSI 1-6); higher = more stable. Particulars: c terminus: a fixed tail appended.
As for DGCEKAYFYMSCLVKHKRIHSREK [E2G], the protein stability index was 2.29. On to DKCEKAYFYMSCLVKHKRIHSREK [E2K], for which the protein stability index turned out to be 2.17. On the same count and under the same terms, the same measure for DICEKAYFYMSCLVKHKRIHSREK [E2I]: 1.71. The same measure, in the same setting: the same measure for DRCEKAYFYMSCLVKHKRIHSREK [E2R]: 2.08; for DACEKAYFYMSCLVKHKRIHSREK [E2A]: 2.17; for DNCEKAYFYMSCLVKHKRIHSREK [E2N]: 2.62. Still for that read-out and setting: under DHCEKAYFYMSCLVKHKRIHSREK [E2H] stands 2.03; under DQCEKAYFYMSCLVKHKRIHSREK [E2Q], 2.49; under DYCEKAYFYMSCLVKHKRIHSREK [E2Y], 4.44. Take DPCEKAYFYMSCLVKHKRIHSREK [E2P]: the protein stability index was determined as 2.21. Same read-out and setting: the same measure for DCCEKAYFYMSCLVKHKRIHSREK [E2C]: 1.52; for DMCEKAYFYMSCLVKHKRIHSREK [E2M]: 1.41.

Take DVCEKAYFYMSCLVKHKRIHSREK [E2V]: the protein stability index is 1.57. On the same count and under the same terms, under DSCEKAYFYMSCLVKHKRIHSREK [E2S] stands 1.72; under DTCEKAYFYMSCLVKHKRIHSREK [E2T], 3.17. In the case of DDCEKAYFYMSCLVKHKRIHSREK [E2D], the protein stability index was 2.21. On to DFCEKAYFYMSCLVKHKRIHSREK [E2F], for which the protein stability index came to 2.82. On the same count and under the same terms, under DECEWAYFYMSCLVKHKRIHSREK [K5W] stands 2.82; under DECECAYFYMSCLVKHKRIHSREK [K5C], 2.52. Same read-out and setting: the same measure for DECENAYFYMSCLVKHKRIHSREK [K5N]: 2.84; for DECEVAYFYMSCLVKHKRIHSREK [K5V]: 1.81. The same measure, in the same setting: the same measure for DECEGAYFYMSCLVKHKRIHSREK [K5G]: 3.13; for DECEHAYFYMSCLVKHKRIHSREK [K5H]: 2.79. As for DECERAYFYMSCLVKHKRIHSREK [K5R], the protein stability index is 2.5. As to DECELAYFYMSCLVKHKRIHSREK [K5L], the protein stability index amounted to 2.61.

Consider DECEYAYFYMSCLVKHKRIHSREK [K5Y], for which the protein stability index is 1.82. Regarding DECESAYFYMSCLVKHKRIHSREK [K5S], the protein stability index was found to be 2.44.

Turning to DECEDAYFYMSCLVKHKRIHSREK [K5D], the protein stability index worked out at 3.36.

For the variant DECEEAYFYMSCLVKHKRIHSREK [K5E], the protein stability index was 2.95. DECETAYFYMSCLVKHKRIHSREK [K5T]: the protein stability index was found to be 2.64. The same measure, in the same setting: the same measure for DECEIAYFYMSCLVKHKRIHSREK [K5I]: 1.79. The same measure, in the same setting: under DECEQAYFYMSCLVKHKRIHSREK [K5Q] stands 3.08; under DECEMAYFYMSCLVKHKRIHSREK [K5M], 2.34.

For the variant DECEFAYFYMSCLVKHKRIHSREK [K5F], the protein stability index is 1.67. DECEAAYFYMSCLVKHKRIHSREK [K5A]: the protein stability index was 2.71. The same measure, in the same setting: the same measure for DECEPAYFYMSCLVKHKRIHSREK [K5P]: 3.51; for DECIKAYFYMSCLVKHKRIHSREK [E4I]: 2.17; for DECMKAYFYMSCLVKHKRIHSREK [E4M]: 1.44. The same measure, in the same setting: under DECNKAYFYMSCLVKHKRIHSREK [E4N] stands 2; under DECVKAYFYMSCLVKHKRIHSREK [E4V], 1.79; under DECCKAYFYMSCLVKHKRIHSREK [E4C], 2.01. Same read-out and setting: under DECKKAYFYMSCLVKHKRIHSREK [E4K] stands 1.66; under DECLKAYFYMSCLVKHKRIHSREK [E4L], 2.18; under DECRKAYFYMSCLVKHKRIHSREK [E4R], 2.33.

Consider DECPKAYFYMSCLVKHKRIHSREK [E4P], for which the protein stability index worked out at 2.45. With DECWKAYFYMSCLVKHKRIHSREK [E4W], the protein stability index worked out at 1.99. The same measure, in the same setting: the same measure for DECQKAYFYMSCLVKHKRIHSREK [E4Q]: 2.34; for DECSKAYFYMSCLVKHKRIHSREK [E4S]: 2.48. Still for that read-out and setting: under DECFKAYFYMSCLVKHKRIHSREK [E4F] stands 1.92. Consider DECDKAYFYMSCLVKHKRIHSREK [E4D], for which the protein stability index was found to be 2.83. On the same count and under the same terms, under DECGKAYFYMSCLVKHKRIHSREK [E4G] stands 1.76; under DECHKAYFYMSCLVKHKRIHSREK [E4H], 2.26. Regarding DECYKAYFYMSCLVKHKRIHSREK [E4Y], the protein stability index was 2.01.

For DECAKAYFYMSCLVKHKRIHSREK [E4A], the protein stability index was 1.62. Still for that read-out and setting: the same measure for DECTKAYFYMSCLVKHKRIHSREK [E4T]: 2.88.

The variants in a further data set derive from B2. Described as above. Particulars: c terminus: a fixed tail appended.
Take AVPTDEARAFAEKNNLSFIETSCL [A23C]: the protein stability index was found to be 2.9. On the same count and under the same terms, the same measure for AVPTDEARAFAEKNNLSFIETSNL [A23N]: 2.88. Same read-out and setting: under AVPTDEARAFAEKNNLSFIETSVL [A23V] stands 1.75; under AVPTDEARAFAEKNNLSFIETSIL [A23I], 2.09. Regarding AVPTDEARAFAEKNNLSFIETSML [A23M], the protein stability index is 2.3.

Consider AVPTDEARAFAEKNNLSFIETSDL [A23D], for which the protein stability index came out at 4.11.

Regarding AVPTDEARAFAEKNNLSFIETSQL [A23Q], the protein stability index came out at 2.86.

Regarding AVPTDEARAFAEKNNLSFIETSLL [A23L], the protein stability index came to 2.4.

Take AVPTDEARAFAEKNNLSFIETSGL [A23G]: the protein stability index is 3.96. Still for that read-out and setting: the same measure for AVPTDEARAFAEKNNLSFIETSRL [A23R]: 2.47; for AVPTDEARAFAEKNNLSFIETSEL [A23E]: 4.41; for AVPTDEARAFAEKNNLSFIETSHL [A23H]: 2.62. Still for that read-out and setting: the same measure for AVPTDEARAFAEKNNLSFIETSFL [A23F]: 2.14; for AVPTDEARAFAEKNNLSFIETSWL [A23W]: 2.15; for AVPTDEARAFAEKNNLSFIETSPL [A23P]: 2.86. Still for that read-out and setting: under AVPTDEARAFAEKNNLSFIETSKL [A23K] stands 3.28.

For the variant AVPTDEARAFAEKNNLSFIETSSL [A23S], the protein stability index was 3.38. On the same count and under the same terms, under AVPTDEARAFAEKNNLSFIETSTL [A23T] stands 2.77. The same measure, in the same setting: under AVPTDEARAFAEKNNLSFIETSYL [A23Y] stands 2.43. Same read-out and setting: the same measure for AVPTDEARAFAEKNNLSFIETYAL [S22Y]: 1.96; for AVPTDEARAFAEKNNLSFIETSAF [L24F]: 2.43. For AVPTDEARAFAEKNNLSFIETSAV [L24V], the protein stability index was determined as 3.57. Consider AVPTDEARAFAEKNNLSFIETSAH [L24H], for which the protein stability index amounted to 4.29.

As for AVPTDEARAFAEKNNLSFIETSAT [L24T], the protein stability index is 3.55. With AVPTDEARAFAEKNNLSFIETSAW [L24W], the protein stability index came out at 2.47.

In the case of AVPTDEARAFAEKNNLSFIETSAQ [L24Q], the protein stability index stood at 3.98. The same measure, in the same setting: the same measure for AVPTDEARAFAEKNNLSFIETSAI [L24I]: 3.5; for AVPTDEARAFAEKNNLSFIETSAC [L24C]: 3.38. Same read-out and setting: the same measure for AVPTDEARAFAEKNNLSFIETSAG [L24G]: 4.49; for AVPTDEARAFAEKNNLSFIETSAR [L24R]: 2.8; for AVPTDEARAFAEKNNLSFIETSAE [L24E]: 4.74.

With AVPTDEARAFAEKNNLSFIETSAD [L24D], the protein stability index came to 5.12.

Turning to AVPTDEARAFAEKNNLSFIETSAM [L24M], the protein stability index turned out to be 3.13. The same measure, in the same setting: the same measure for AVPTDEARAFAEKNNLSFIETSAK [L24K]: 4.15; for AVPTDEARAFAEKNNLSFIETSAN [L24N]: 4.87; for AVPTDEARAFAEKNNLSFIETSAS [L24S]: 4.25. On the same count and under the same terms, the same measure for AVPTDEARAFAEKNNLSFIETSAP [L24P]: 4.55; for AVPTDEARAFAEKNNLSFIETSAA [L24A]: 3.49; for AVPTDEARAFAEKNNLSFIETSAY [L24Y]: 3.21.
